{
  "source": "paper PMC7870846",
  "about": "“Incorporation of sensing modalities into de novo designed fluorescence-activating proteins” (Nature Communications, 2021)",
  "binders": {"B1": {"name": "MBP-tagged split mFAP fragment m58 (domain or fragment)", "chain": "DTLDIDITYPSLGNIKAQGQITMDSPTQFKWDATTKGENDFHGRLTGTLQRQE", "modifications": "not fully specified"}},
  "assay_in_all_cases": "other fluorescence titration; MBP-tagged fragment titrated into its complementary MBP-tagged fragment; 25.0 uM DFHBI-1T; high-salt Tev cleavage buffer (25.0 mM Tris, 100 mM NaCl, pH 8.00); ex 468 nm, em 530 nm; estimated Kd, signal did not plateau",
  "details_in_all_cases": "both partners purified",
  "key": {"[1]": {"target": "T1, MBP-tagged split mFAP fragment m16", "T1 chain": "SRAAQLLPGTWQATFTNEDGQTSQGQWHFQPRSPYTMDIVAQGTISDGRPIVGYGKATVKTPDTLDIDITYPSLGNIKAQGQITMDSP"}, "[2]": {"target": "T2, MBP-tagged split mFAP fragment m14", "T2 chain": "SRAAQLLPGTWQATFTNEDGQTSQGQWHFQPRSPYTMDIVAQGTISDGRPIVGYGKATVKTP"}, "[3]": {"target": "T3, MBP-tagged split mFAP fragment m17", "T3 chain": "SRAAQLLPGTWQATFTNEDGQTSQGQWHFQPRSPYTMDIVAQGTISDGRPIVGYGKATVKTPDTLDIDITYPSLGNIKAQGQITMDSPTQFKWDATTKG"}},
  "note": "No end group written: not given here.",
  "data": [
    {"binder": "TQFKWDATTKGENDFHGRLTGTLQRQE (domain or fragment, not fully specified)", "note": "[MBP-tagged split mFAP fragment m78]", "values": [
      {"measurement": "Kd", "setting": "[1]", "result": "≥ 232", "unit": "µM"}
    ]},
    {"binder": "B1", "values": [
      {"measurement": "Kd", "setting": "[2]", "result": "≥ 22", "unit": "µM"}
    ]},
    {"binder": "ENDFHGRLTGTLQRQE (domain or fragment, not fully specified)", "note": "[MBP-tagged split mFAP fragment m8]", "values": [
      {"measurement": "Kd", "setting": "[3]", "result": "≥ 354", "unit": "µM"}
    ]}
  ]
}
